Target: T1, Vaccinia Virus, Western Reserve, L1R Protein with C-Terminal Histidine Tag (Vaccinia virus, strain Western Reserve, UniProt P07612)
T1 construct: also called L1 antigen; recombinant L1 antigen; source: obtained through BEI Resources (NR-2625), recombinant from baculovirus
Experiment: SPR; […] (10 µg/ml, […], dissociation 600 s; […]
Conditions: both partners purified

B1: L1-C5 (VHH)
VHH: EVQLQASGGGLVQAGGSLRLSCIASGRAFSTTNMGWFRQAPGKEREFVTRVNWSGGVTSYADSVKGRFTLSRDYTKNTVYLQMNSLKPEDTAVYYCAGSTVWSTDRAHYNYWGQGTQVTVSS
notes: llama sdAb of the L1-H7 family; has a single N to Y substitution in framework 3 not seen in other members of the family; also called sdAb L1-C5
Binder B1 has a Kd of 4 nM, a koff of 0.032 s⁻¹ and a kon of 7.2e+06 M⁻¹ s⁻¹.

B2: L1-G2+ (VHH)
VHH: EVQLQASGGGLVQAGGSLRLSCTASGRAFSTTNMGWFRQAPGKEREFVCRVNWSGGVTSYADSVKGRFTCSRDNTKNTVYLQMDSLKPEDTAVYYCAGSTVWSTDRKHYNYWGQGTQVTVSS
notes: also called disulfide mutant of L1-G2
Work on B2 yielded a Kd of 1 nM, a koff of 0.0021 s⁻¹ and a kon of 2.1e+06 M⁻¹ s⁻¹.

B3: L1-E6 (VHH)
VHH: EVQLQASGGGLVQAGGSLRLSCIASGRAFSTTNMGWFRQAPGKEREFVTRVNWSGGVTSYADPVKGRFTLSRDNTKNTVYLQMNSLKPEDTAVYYCAGSTVWSTDGAHYNYWGQGTQVTVSS
notes: llama sdAb of the L1-H7 family; also called sdAb L1-E6
In the case of B3, the Kd is reported as 2.6 nM, the koff is reported as 0.001 s⁻¹ and the kon is reported as 390000 M⁻¹ s⁻¹.

B4: L1-G2 (VHH)
VHH: EVQLQASGGGLVQAGGSLRLSCTASGRAFSTTNMGWFRQAPGKEREFVTRVNWSGGVTSYADSVKGRFTLSRDNTKNTVYLQMDSLKPEDTAVYYCAGSTVWSTDRKHYNYWGQGTQVTVSS
notes: llama sdAb of the L1-H7 family; also called sdAb L1-G2
Work on B4 yielded a Kd of 1.9 nM, a koff of 0.001 s⁻¹ and a kon of 530000 M⁻¹ s⁻¹.

B5: L1-H7 (VHH)
VHH: EVQLQASGGGLVQAGGSLRLSCIASGRAFSTTNMGWFRQAPGKEREFVTRVNWSGGVTSYADSVKGRFTLSRDNTKNTVYLQMNSLKPEDTAVYYCAGSTVWSTDRAHYNYWGRGTQVTVSS
notes: llama sdAb of the L1-H7 family; also called sdAb L1-H7
In the case of B5, the Kd is reported as 1.5 nM, the koff is reported as 0.00087 s⁻¹ and the kon is reported as 560000 M⁻¹ s⁻¹.

B6: L1-E2 (VHH)
VHH: EVQLQASGGGLVQPGGSLRLSCAASGFSISSATMSWVRQAPGKGLEWVSTVQDGAGIISSADSAKARFTISRDSAKNTLYLQMNSLKPEDTAVYYCRTVVFGRILRGQGTQVTVSS
notes: llama sdAb, only member of the L1-E2 family; also called sdAb L1-E2
Work on B6 yielded a Kd of 0.7 nM, a koff of 0.0045 s⁻¹ and a kon of 6.5e+06 M⁻¹ s⁻¹.

B7: L1-H2 (VHH)
VHH: EVQLQASGGGLVQAGGSLRLSCAASGRTLSTGVMGWFRQLPGKEREFVARITWIAGSSLYADSVKGRFTISRDNTNNTVYLQMNALKPEDTAVYYCAANLAGNSWPYKTPMDYDSWGQGTQVTVSS
notes: llama sdAb of the L1-H2 family; also called sdAb L1-H2
For B7, the Kd was 1.8 nM, the koff was 0.0021 s⁻¹ and the kon was 1.2e+06 M⁻¹ s⁻¹.

From PMC4161341 (PLoS ONE, 2014)
